For two molecules, Km and kcat results are on record in PMC9765892, “Molecular identification and functional characterization of two glycosyltransferases genes from Fallopia multiflora” (Frontiers in Plant Science, 2022).

One data set concerns the target T1, FmUGT1 (Pleuropterus multiflorus, UniProt A0A9E7V1Q5).
T1 construct: gene UGT; full length, 533 residues (ORF 1602 bp); pET-32a (BamH I) in E. coli Transetta (DE3), Ni-NTA purified
Description: HPLC glycosylation assay; Lineweaver-Burk plot. In kind it is biochemical. Particulars: 0.8 mM UDP-glucose; 0.05 M Tris-HCl; 5-480 μM substrate; pH and temperature of kinetics not stated; substrate assigned from methods. The source says: HPLC glycosylation assay; Lineweaver-Burk plot on FmUGT1 | using THSG and emodin as the substrate for FmUGT1 and FmUGT2, respectively

Substrate in data set [1]: Cc1cc(O)c2c(c1)C(=O)c1cc(O)cc(O)c1C2=O
Description: HPLC glycosylation assay; Lineweaver-Burk plot. In kind it is biochemical, Pleuropterus multiflorus. The conditions noted are these: 0.8 mM UDP-glucose; 0.05 M Tris-HCl; 5-480 μM substrate; pH and temperature of kinetics not stated; substrate assigned from methods. The source says:
HPLC glycosylation assay; Lineweaver-Burk plot on FmUGT2 | using THSG and emodin as the substrate for FmUGT1 and FmUGT2, respectively

T1 sequence (A0A9E7V1Q5 entry or part of it): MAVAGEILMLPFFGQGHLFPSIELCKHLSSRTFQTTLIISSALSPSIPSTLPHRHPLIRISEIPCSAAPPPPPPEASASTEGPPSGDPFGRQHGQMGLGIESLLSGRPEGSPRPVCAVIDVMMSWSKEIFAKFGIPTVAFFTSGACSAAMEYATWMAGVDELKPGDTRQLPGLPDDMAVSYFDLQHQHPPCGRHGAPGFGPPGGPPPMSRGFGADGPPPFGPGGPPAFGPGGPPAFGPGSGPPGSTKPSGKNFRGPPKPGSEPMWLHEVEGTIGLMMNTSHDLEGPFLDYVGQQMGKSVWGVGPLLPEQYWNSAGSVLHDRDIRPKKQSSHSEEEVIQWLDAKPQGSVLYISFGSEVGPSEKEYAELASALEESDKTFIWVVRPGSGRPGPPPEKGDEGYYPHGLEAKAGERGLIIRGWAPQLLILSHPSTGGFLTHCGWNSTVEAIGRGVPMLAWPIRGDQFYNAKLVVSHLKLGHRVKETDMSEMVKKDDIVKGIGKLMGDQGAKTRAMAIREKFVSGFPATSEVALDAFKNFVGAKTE

On to `OC[C@H]1O[C@@H](Oc2c(O)cc(O)cc2/C=C/c2ccc(O)cc2)[C@H](O)[C@@H](O)[C@@H]1O` [compound 1, THSG], for which the Km (commonly the substrate concentration at which the rate is half of its maximum) at FmUGT1 was determined as 236 µM.

B1: FmUGT2 (Pleuropterus multiflorus) (protein)
chain: MTISKTANLVLIPAPGMGHLAPAIELAKHLVARDPRLSITVLLIKGFVPEETVESYILSLKSNSSLLNQGIGFIDIPQIDLNSARPSFLTHMNAYQPKVKEAIEGLRSAGPLPVAGLLVDMFCTSTIDVATELGLPSYVFFTSGAGLLRLFFHLHGLGVDVAQEYDVVRSPDTLLEIPGFRNPVPVKVLPGRFLSKDGQSSTFLRLADKFRQAKGILVNTCMEIDRDLIQSMSQQDIEIPPIYPVGPILNLPTEDDHGHDDDESSGKDPITRWLDDQPPRSVVFLCFGSRGTFNDTQIKEIAVGLERSGQRFLWSLRQRPGETGVPLELDDPSKVLPEGFFERTAEKGRVIGWAPQARVLAHKAVGAFVSHCGWNSTLESFWYGVPIAAWPIYAEQQLNAFVLVKELGLATEIRIDYCQDFGINMVVKAEEVEDGINKAMKETEVKKKVKEMCDKARKALEEGGSSYESIGRFIEVVFKNLP
notes: full length, 482 residues (ORF 1449 bp); pET-32a (BamH I) in E. coli Transetta (DE3), Ni-NTA purified
On to B1, for which, in data set [1], the Km amounted to 185 µM; the kcat – broadly, the number of substrate molecules converted per active site and unit of time at saturation – is 0.1413 s⁻¹.
